Assay results: patent US11673916B2, “Neuroprotective peptides and methods of their use” (University of Pittsburgh—Of the Commonwealth System of …, priority 2020, dated 2023)

Target: T1, endogenous Kv2.1 channels (Rattus norvegicus, UniProt P15387)
T1 construct: in order to visualize the distribution of endogenous Kv2.1 channels; endogenous in cells; host or cells: primary rat cortical neurons
T1 sequence (P15387 1-857): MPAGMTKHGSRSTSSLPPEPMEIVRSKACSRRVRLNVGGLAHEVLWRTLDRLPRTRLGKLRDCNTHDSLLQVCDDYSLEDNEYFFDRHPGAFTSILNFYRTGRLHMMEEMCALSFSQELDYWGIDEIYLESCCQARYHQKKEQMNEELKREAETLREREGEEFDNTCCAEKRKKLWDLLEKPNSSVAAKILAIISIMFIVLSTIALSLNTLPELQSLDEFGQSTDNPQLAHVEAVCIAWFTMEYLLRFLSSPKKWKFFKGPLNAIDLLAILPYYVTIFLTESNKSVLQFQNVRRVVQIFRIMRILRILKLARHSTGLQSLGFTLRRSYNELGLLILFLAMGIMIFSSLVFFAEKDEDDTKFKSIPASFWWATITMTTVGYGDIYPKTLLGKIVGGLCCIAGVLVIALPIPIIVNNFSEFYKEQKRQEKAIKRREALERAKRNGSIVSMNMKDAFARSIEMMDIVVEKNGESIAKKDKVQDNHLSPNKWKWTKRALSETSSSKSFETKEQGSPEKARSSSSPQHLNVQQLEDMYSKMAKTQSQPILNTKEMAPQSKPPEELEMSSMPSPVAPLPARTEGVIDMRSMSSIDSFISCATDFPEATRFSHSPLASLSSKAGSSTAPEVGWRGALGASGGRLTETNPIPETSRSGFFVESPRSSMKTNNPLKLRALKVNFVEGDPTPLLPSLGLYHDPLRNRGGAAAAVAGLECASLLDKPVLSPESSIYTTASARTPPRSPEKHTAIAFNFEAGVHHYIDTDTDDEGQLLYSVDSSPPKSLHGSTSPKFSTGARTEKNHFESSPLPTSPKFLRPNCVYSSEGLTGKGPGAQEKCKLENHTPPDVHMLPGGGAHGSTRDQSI
Assay: Immunocytochemistry of endogenous Kv2.1 channel clusters in fixed cortical neurons
Format: cell-based
Details: 10 μM, three-hour treatment, mean±SEM (FIG. 10B)
Method: The in vitro Kv2.1 immunofluorescence experiment (FIG. 10) was carried out in DIV 21-26 primary rat neuronal cultures, as described above. Each coverslip was treated with either TAT-DP-2 or TAT-Sc-2 in its individual well to reach a final concentration of […] 3 hours, coverslips were transferred to PBS and immediately fixed with 4% paraformaldehyde/4% sucrose for 15 minutes. Coverslips were rinsed with PBS 3 times and then permeabilized with 0.25% triton-X-100 for 15 minutes. Cells were rinsed with PBS 3 times and then blocked with 2% BSA/10% normal goat serum for 1 hour at room temperature. […]
To analyze Kv2.1 distribution in live primary cortical neurons, cells were transfected with both a tdTomato construct and a GFP-tagged Kv2.1 construct (O'Connell, et al., J Neurosci. 26: 9609-9618, 2006) and imaged on a Nikon A1+ confocal microscope (Nikon, Tokyo, Japan). […] For live images of transfected neurons, object count parameters were customized to define a Kv2.1 cluster as an area of high intensity GFP fluorescence (compared to background), measuring 0.05 μm^2 or larger (Schulien et al., J Physiol (Lond). 594: 2647-2659, 2016). Kv2.1 cluster density was calculated by normalizing the number of Kv2.1 clusters counted to the somatic area of each neuron (#Kv2.1 clusters/μm^2). […]

Row | Sequence | mean Kv2.1 surface cluster density (endogenous channels)
1 | YGRKKRRQRRRDFSSIST [TAT-Sc-2, TAT-linked scramble control peptide] | 0.056±0.005 #Kv2.1 clusters/μm^2 of neuronal soma
2 | YGRKKRRQRRRSIDSFTS [TAT-DP-2, TAT-linked declustering peptide 2] | 0.030±0.003 #Kv2.1 clusters/μm^2 of neuronal soma
